In PMC4428629, “The Structure of an NDR/LATS Kinase–Mob Complex Reveals a Novel Kinase–Coactivator System and Substrate Docking Mechanism” (PLoS Biology, 2015):
Residues, ends and D or L forms follow the SMILES beside them. No end group written: not given here. carboxyfluorescein = carboxyfluorescein label

How the values were obtained:
Cbk1–Mob2 = experiment: In vitro pulldown of Cbk1–Mob2; assay type: binding, Saccharomyces cerevisiae
Protocol: Cbk1 substrates containing the docking motifs or substrate sites were bacterially expressed as MBP or GST fusions. For pulldown assays, MBP-fusion lysates were incubated with amylose resin (New England Biolabs) on ice for 15 min, followed by washing with PBS (137 mM NaCl, 2.7 mM KCl, 4.3 mM Na2HPO4, 1.4 mM KH2PO4 [pH 7.3]). GST fusions were purified on glutathione Sepharose beads followed by dialysis into Cbk1 buffer.
MBP fusions were incubated on bead with 1 μM purified Cbk1 on ice for 15 min. Samples were washed 3× with PBS (transferred to fresh tube on last wash), resuspended in SDS-PAGE buffer, and separated by SDS-PAGE. Samples were directly visualized with GelCode Blue (Pierce) or transferred to PVDF membrane for immunoblotting. Cbk1 was detected using His or pS570 primary antibodies. For experiments detected using α-pS570, antibody signal with pure protein was analyzed to control for lot-dependent variations in expression as well as variations between Cbk1 mutants (no variations detected).

Cbk1^251-756-Mob2 = biological target: T1, Cbk1^251-756-Mob2 (Saccharomyces cerevisiae, UniProt P43563+P53894); experiment: FP direct titration, Cbk1^251-756-Mob2 (WT); assay type: binding; conditions: CF-labeled peptide 20 nM, Tris pH 8.0, triplicate, read-out: peptide binding affinity (table in Fig 5C)
T1 construct: His6-Cbk1^251–756 was co-expressed with GST-Mob2 (full length or 45–287); His6 (N); made in house
T1 sequence (P53894 251-756): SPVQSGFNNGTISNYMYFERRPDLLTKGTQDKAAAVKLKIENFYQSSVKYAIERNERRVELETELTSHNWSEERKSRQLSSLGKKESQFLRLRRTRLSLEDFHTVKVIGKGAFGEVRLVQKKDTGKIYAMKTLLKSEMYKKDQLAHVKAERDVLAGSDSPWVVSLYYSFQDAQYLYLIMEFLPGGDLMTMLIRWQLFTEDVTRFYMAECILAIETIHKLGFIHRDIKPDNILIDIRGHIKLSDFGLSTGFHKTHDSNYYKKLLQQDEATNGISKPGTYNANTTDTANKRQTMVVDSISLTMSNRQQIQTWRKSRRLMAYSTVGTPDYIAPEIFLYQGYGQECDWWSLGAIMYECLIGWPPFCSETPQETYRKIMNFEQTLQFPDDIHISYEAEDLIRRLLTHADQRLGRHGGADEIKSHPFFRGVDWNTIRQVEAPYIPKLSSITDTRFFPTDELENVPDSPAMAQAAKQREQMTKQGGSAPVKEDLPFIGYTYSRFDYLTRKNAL
T1 sequence (P43563 1-287 partner): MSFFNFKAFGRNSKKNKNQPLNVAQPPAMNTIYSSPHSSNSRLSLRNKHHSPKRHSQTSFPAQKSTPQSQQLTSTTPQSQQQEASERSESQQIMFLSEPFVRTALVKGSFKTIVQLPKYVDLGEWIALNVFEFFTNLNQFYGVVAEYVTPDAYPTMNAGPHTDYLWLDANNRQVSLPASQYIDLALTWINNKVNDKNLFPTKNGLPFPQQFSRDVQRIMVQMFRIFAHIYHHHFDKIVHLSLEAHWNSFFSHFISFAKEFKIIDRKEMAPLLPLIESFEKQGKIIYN
Protocol: His6-Cbk1^251–756 was co-expressed with GST-Mob2 (full length or 45–287). Cbk1 kinase domain alone (352–756 or 352–692) was expressed as GST-Cbk1-His6. All constructs were bacterially expressed and purified on a Ni-NTA resin (Qiagen) followed by glutathione Sepharose beads (GE Biosciences). For crystallization, tags were cleaved with TEV protease followed by cation exchange chromatography on a Resource S column. All Cbk1 preparations were subsequently dialyzed into Cbk1 buffer (20 mM Tris-HCl, 150 mM NaCl, 2 mM DTT [pH 8.0]).
For FP-based binding affinity measurements, different docking peptides (pepAce2: GSGSIIVTTNSANGGYQFP; pepSSD1: TTEQSDFKFP; pepHM: IGYTYSRFDY; pepHM-P: IGYpTYSRFDY) were N-terminally (pepAce2 and pepSSD1) or C-terminally (pepHM and pepHM-P) labeled with carboxyfluorescein (CF) fluorescent dyes.
Change in the FP signal in direct binding affinity measurements was monitored as a function of increasing concentration of protein with a Synergy H4 (BioTek Instruments) plate reader in 384-well plates. The labeled peptides were at 20 nM in 20 mM Tris (pH 8.0), 100 mM NaCl, 0.05% Brij35P, 2 mM DTT. The resulting binding isotherms were fit to a quadratic binding equation. The affinity of the unlabeled peptides was measured in steady-state competition experiments: 20 nM labeled reporter was mixed with protein samples in a concentration to achieve ~60%–80% complex formation. Subsequently, increasing amounts of unlabeled peptide were added, and the FP signal was measured as described earlier for direct titration experiments. The Kd for each unlabeled peptide interaction was determined by fitting the data to a competition binding equation. Titration experiments were carried out in triplicate, and the average FP signal was used for fitting the data with OriginPro 7.

[1] = system: budding yeast cell separation (RAM network output); experiment: Cell separation assay (cells per group); assay type: cell-based, Saccharomyces cerevisiae; conditions: cbk1-as2 strain
Protocol: For cell separation assays, ckb1Δ, ace2ΔCBK1, or ace2Δcbk1-as2 cells were transformed with empty, WT, or mutant vector under control of the ADH1 promoter. Cells were grown to log-phase, briefly sonicated, and mounted on slides to count cell group size. Histograms represent mean ± standard deviation of three independent cultures, with >100 groups counted for each. For quantification of transcriptional output, RNA was isolated from log-phase cultures and analyzed by real-time PCR. Bar graphs represent mean ± standard deviation of three independent cultures. For growth assays, WT CBK1 or cbk1-as2 strains were transformed with vectors containing Ssd1 (WT and mutants) expressed from a galactose-inducible promoter. Stationary phase cells grown in glucose were diluted to OD600 = 0.2. Five-fold serial dilutions (5^−2, 5^−3, 5^−4, 5^−5) were plated in the presence of glucose or galactose, then incubated for 3 d at 24°C.
(§1) Supplementary file pbio.1002146.s001.xlsx: S1 Data Measurements of the distances between the centers of mass of indicated Cbk1 and Mob2 regions over the course of the molecular dynamics simulations described in Figs 3 and S4. This file also contains data quantifying the effectiveness of cell separation in different genetic backgrounds. In these experiments we counted the number of cells present in clumps of specific sizes in random microscope fields, and then binned these groups into clump size ranges: 1–4 cells, 5–10 cells, 11–20 cells, and ≥21 cells per clump. We quantified this for the indicated allele combinations, scoring three independent isolates of each allele combination. The number of cell bodies present in clumps of different sizes is a function of the efficiency of cell separation. (XLSX) Click here for additional data file.
as §1, with “pbio.1002146.s004.xlsx: S4” for “pbio.1002146.s001.xlsx: S1”, “Data” for “Measurements of the distances between the centers of mass of indicated Cbk1 and Mob2 regions over the course of the molecular dynamics simulations described in Figs 3 and S4. This file also contains data”, “1–2 cells, 3–4” for “1–4”

[2] = system: budding yeast cell separation (RAM network output); experiment: Cell separation assay (cells per group); assay type: cell-based, Saccharomyces cerevisiae; conditions: cbk1-as2 strain; remark: listed apart in the source
Cbk1(W444A)–Mob2 complex = Cbk1(W444A)–Mob2 complex (S. cerevisiae, UniProt P53894 251-756; P43563 1-287, W444A); experiment: FP
[3] = biological target: T2, Cbk1^251–756–Mob2 complex (S. cerevisiae, UniProt P53894 251-756; P43563 1-287); experiment: FP
T2 chain 1: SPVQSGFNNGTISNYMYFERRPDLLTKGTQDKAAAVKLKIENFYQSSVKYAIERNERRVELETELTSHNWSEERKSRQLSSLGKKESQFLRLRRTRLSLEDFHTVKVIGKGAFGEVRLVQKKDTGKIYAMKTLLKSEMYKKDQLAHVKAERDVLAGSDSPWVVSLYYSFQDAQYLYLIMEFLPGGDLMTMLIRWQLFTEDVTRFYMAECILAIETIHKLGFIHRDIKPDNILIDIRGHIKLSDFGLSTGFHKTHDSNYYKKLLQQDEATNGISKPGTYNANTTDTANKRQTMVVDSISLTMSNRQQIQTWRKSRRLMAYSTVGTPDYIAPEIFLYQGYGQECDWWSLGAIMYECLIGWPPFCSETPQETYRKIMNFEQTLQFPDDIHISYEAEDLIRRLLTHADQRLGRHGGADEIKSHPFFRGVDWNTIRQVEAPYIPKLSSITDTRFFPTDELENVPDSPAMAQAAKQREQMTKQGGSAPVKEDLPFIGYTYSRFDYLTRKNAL
T2 chain 2: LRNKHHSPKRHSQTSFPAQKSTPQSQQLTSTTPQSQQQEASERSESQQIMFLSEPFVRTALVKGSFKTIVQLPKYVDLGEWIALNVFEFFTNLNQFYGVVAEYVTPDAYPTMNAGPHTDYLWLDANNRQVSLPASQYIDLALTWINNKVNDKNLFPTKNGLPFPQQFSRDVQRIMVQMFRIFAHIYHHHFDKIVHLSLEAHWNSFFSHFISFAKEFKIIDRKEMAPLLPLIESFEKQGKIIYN

Cbk1(F699A)–Mob2 complex = Cbk1(F699A)–Mob2 complex (S. cerevisiae, UniProt P53894 251-756; P43563 1-287, F699A); experiment: FP

Cbk1(W444A)–Mob2 complex, sequence (P53894 251-756 W444A, chain 1 of 2, one chain of several): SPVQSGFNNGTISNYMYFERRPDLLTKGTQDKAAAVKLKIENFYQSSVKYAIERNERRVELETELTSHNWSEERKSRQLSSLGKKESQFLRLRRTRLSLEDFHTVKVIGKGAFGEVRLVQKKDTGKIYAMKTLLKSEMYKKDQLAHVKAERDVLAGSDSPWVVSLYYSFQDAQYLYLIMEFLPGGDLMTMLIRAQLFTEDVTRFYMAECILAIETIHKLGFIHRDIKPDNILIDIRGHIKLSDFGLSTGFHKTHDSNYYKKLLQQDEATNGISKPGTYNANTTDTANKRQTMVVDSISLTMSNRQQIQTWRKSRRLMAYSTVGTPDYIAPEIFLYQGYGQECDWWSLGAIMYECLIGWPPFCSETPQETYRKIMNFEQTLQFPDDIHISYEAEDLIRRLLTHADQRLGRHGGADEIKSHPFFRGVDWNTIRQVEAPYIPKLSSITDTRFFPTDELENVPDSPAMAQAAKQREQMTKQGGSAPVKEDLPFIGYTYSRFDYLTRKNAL

## Ssd1^208–214: Ssd1 docking fragment used for Cbk1 pulldown (QSDFKFP; UniProt P24276 208-214, looked up, fragment)
Cbk1–Mob2; Cbk1 F699A mutant (Fig 5B)
  Cbk1 pulldown: not nearby F699A abrogate Cbk1 pulldown
Cbk1–Mob2; Cbk1 Y687A mutant (Fig 5B)
  Cbk1 pulldown: abrogate Cbk1 pulldown

## C[C@@H](O)[C@H](N)C(=O)N[C@H](C(=O)N[C@@H](CCC(=O)O)C(=O)N[C@@H](CCC(N)=O)C(=O)N[C@@H](CO)C(=O)N[C@@H](CC(=O)O)C(=O)N[C@@H](Cc1ccccc1)C(=O)N[C@@H](CCCCN)C(=O)N[C@@H](Cc1ccccc1)C(=O)N1CCC[C@H]1C(=O)O)[C@@H](C)O [pepSSD1] (H-TTEQSDFKFP-OH)
Cbk1^251-756-Mob2
  Kd: 6 µM

## 15-amino-acid peptide from Ace2: 15-amino-acid peptide from Ace2 with the sequence YQFP at its C-terminal end (IIVTTNSANGGYQFP; also: MBP fusion, end not given here)
Cbk1–Mob2; in vitro binding (Figs 4B, S5A, S5E)
  association with Cbk1–Mob2: associates with the Cbk1–Mob2 complex

B1: Ace2 WT (protein, UniProt P21192 1-770, looked up)
Metallothionein expression …: MDNVVDPWYINPSGFAKDTQDEEYVQHHDNVNPTIPPPDNYILNNENDDGLDNLLGMDYYNIDDLLTQELRDLDIPLVPSPKTGDGSSDKKNIDRTWNLGDENNKVSHYSKKSMSSHKRGLSGTAIFGFLGHNKTLSISSLQQSILNMSKDPQPMELINELGNHNTVKNNNDDFDHIRENDGENSYLSQVLLKQQEELRIALEKQKEVNEKLEKQLRDNQIQQEKLRKVLEEQEEVAQKLVSGATNSNSKPGSPVILKTPAMQNGRMKDNAIIVTTNSANGGYQFPPPTLISPRMSNTSINGSPSRKYHRQRYPNKSPESNGLNLFSSNSGYLRDSELLSFSPQNYNLNLDGLTYNDHNNTSDKNNNDKKNSTGDNIFRLFEKTSPGGLSISPRINGNSLRSPFLVGTDKSRDDRYAAGTFTPRTQLSPIHKKRESVVSTVSTISQLQDDTEPIHMRNTQNPTLRNANALASSSVLPPIPGSSNNTPIKNSLPQKHVFQHTPVKAPPKNGSNLAPLLNAPDLTDHQLEIKTPIRNNSHCEVESYPQVPPVTHDIHKSPTLHSTSPLPDEIIPRTTPMKITKKPTTLPPGTIDQYVKELPDKLFECLYPNCNKVFKRRYNIRSHIQTHLQDRPYSCDFPGCTKAFVRNHDLIRHKISHNAKKYICPCGKRFNREDALMVHRSRMICTGGKKLEHSINKKLTSPKKSLLDSPHDTSPVKETIARDKDGSVLMKMEEQLRDDMRKHGLLDPPPSTAAHEQNSNRTLSNETDAL
[1]; Isolate 1
  Cells per group, bin 2 (1-2), %: 76.6187%
  Cells per group, bin 10 (5-10), %: 5.7554%
  Cells per group, bin 20 (11-20), %: 0.7194%
  Cells per group, bin More (20+), %: 0%
[1]; Isolate 1, count
  Cells per group, bin 10 (5-10), Frequency: 16
  Cells per group, bin 20 (11-20), Frequency: 2
  Cells per group, bin More (20+), Frequency: 0
[1]; Isolate 2
  Cells per group, bin 2 (1-2), %: 92.7273%
  Cells per group, bin 4 (3-4), %: 6.545%
  Cells per group, bin 10 (5-10), %: 0.7273%
  Cells per group, bin 20 (11-20), %: 0%
  Cells per group, bin More (20+), %: 0%
[1]; Isolate 2, count
  Cells per group, bin 2 (1-2), Frequency: 255
  Cells per group, bin 10 (5-10), Frequency: 2
  Cells per group, bin 20 (11-20), Frequency: 0
  Cells per group, bin More (20+), Frequency: 0
[1]; Isolate 3
  Cells per group, bin 4 (3-4), %: 1.579%
  Cells per group, bin 10 (5-10), %: 0.5263%
  Cells per group, bin 20 (11-20), %: 0.5263%
  Cells per group, bin More (20+), %: 0%
[1]; Isolate 3, count
  Cells per group, bin 2 (1-2), Frequency: 185
  Cells per group, bin 4 (3-4), Frequency: 3
  Cells per group, bin 10 (5-10), Frequency: 1
  Cells per group, bin 20 (11-20), Frequency: 1
  Cells per group, bin More (20+), Frequency: 0
[1]; mean of 3 isolates
  Cells per group, 1-2, Mean: 88.9048%
  Cells per group, 3-4, Mean: 8.344%
  Cells per group, 5-10, Mean: 2.336%
  Cells per group, 11-20, Mean: 0.4152%
  Cells per group, 20+, Mean: 0%
[2]; Isolate 1
  Cells per group, bin 4 (3-4), %: 16.9065%
[2]; Isolate 1, count
  Cells per group, bin 2 (1-2), Frequency: 213
  Cells per group, bin 4 (3-4), Frequency: 47
[2]; Isolate 2, count
  Cells per group, bin 4 (3-4), Frequency: 18
[2]; Isolate 3
  Cells per group, bin 2 (1-2), %: 97.3684%

B2: pepAce2, carboxyfluorescein-labelled (peptide)
peptide: carboxyfluorescein-GSGSIIVTTNSANGGYQFP
Cbk1(W444A)–Mob2 complex
  Kd: 19 µM
[3]
  Kd: 5 µM
Cbk1(F699A)–Mob2 complex
  Kd: 5 µM
